Results from PMC9482650, “Quantitative fragmentomics allow affinity mapping of interactomes” (Nature Communications, 2022).

T1: TIAM2, Q8IVF5
T1 sequence (Q8IVF5 885-986, limits assumed, looked up): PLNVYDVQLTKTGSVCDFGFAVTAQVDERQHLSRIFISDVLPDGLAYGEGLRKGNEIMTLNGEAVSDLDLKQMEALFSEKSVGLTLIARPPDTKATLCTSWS

T2: GRIP1_2, Q9Y3R0
T2 sequence (Q9Y3R0 145-248, limits assumed, looked up): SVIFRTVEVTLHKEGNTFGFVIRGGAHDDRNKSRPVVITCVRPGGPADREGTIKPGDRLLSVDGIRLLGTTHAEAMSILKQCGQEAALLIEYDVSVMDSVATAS

T3: RHPN1, Q8TCX5
T3 sequence (Q8TCX5 508-602, limits assumed, looked up): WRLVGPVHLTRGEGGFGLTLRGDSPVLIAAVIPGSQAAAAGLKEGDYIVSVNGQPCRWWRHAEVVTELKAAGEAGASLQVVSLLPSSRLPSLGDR

T4: APBA1_1, Q02410
T4 sequence (Q02410 651-752, limits assumed, looked up): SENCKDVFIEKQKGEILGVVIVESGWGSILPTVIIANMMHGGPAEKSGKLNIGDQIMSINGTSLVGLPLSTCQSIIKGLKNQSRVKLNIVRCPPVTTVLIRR

T5: MPDZ_5, O75970
T5 sequence (O75970 695-796, limits assumed, looked up): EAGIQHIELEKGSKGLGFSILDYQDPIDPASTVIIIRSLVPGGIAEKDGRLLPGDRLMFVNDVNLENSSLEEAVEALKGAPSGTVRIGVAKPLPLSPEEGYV

T6: MPDZ_12, O75970
T6 sequence (O75970 1857-1958, limits assumed, looked up): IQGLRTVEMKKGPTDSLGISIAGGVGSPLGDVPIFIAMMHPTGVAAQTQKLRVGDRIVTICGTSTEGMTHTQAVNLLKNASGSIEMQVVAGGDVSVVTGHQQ

T7: PTPN13_1, Q12923
T7 sequence (Q12923 1088-1188, limits assumed, looked up): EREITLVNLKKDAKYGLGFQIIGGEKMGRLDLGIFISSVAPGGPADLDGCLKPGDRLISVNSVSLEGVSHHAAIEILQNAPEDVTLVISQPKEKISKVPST

T8: RAPGEF6, Q8TEU7
T8 sequence (Q8TEU7 525-625, limits assumed, looked up): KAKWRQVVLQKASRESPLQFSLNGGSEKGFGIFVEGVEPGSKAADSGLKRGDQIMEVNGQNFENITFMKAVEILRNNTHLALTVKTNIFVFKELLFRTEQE

T9: LNX2_3, Q8N448
T9 sequence (Q8N448 463-564, limits assumed, looked up): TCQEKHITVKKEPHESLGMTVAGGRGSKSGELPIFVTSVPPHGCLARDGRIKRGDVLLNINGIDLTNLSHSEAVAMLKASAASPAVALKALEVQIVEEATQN

T10: PDZD2_2, O15018
T10 sequence (O15018 329-429, limits assumed, looked up): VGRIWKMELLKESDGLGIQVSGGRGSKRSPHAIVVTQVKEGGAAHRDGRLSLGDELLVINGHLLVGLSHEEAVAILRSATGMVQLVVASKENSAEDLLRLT


molecular target: T1, TIAM2, Q8IVF5; assay: holdup assay; set-up: key: below the threshold = too weak to quantify, mostly under pKd 3.1 to 4; conditions: plain residues with an end cap or a label only (N-terminal biotin on a linker: ado-ado)

pKd	Binder
below the threshold	NNMAFETTHF [SLC5A12, Q1EHB4]
below the threshold	SSSVNVSSNL [CXCR1, P25024]

molecular target: T2, GRIP1_2, Q9Y3R0; assay: holdup assay; set-up: key: below the threshold = too weak to quantify, mostly under pKd 3.1 to 4; conditions: plain residues with an end cap or a label only (N-terminal biotin on a linker: ado-ado)

pKd	Binder
below the threshold	NNMAFETTHF [SLC5A12, Q1EHB4]
below the threshold	SSSVNVSSNL [CXCR1, P25024]

molecular target: T3, RHPN1, Q8TCX5; assay: holdup assay; set-up: key: below the threshold = too weak to quantify, mostly under pKd 3.1 to 4; conditions: plain residues with an end cap or a label only (N-terminal biotin on a linker: ado-ado)

pKd	Binder
4.08	NNMAFETTHF [SLC5A12, Q1EHB4]
3.67	SSSVNVSSNL [CXCR1, P25024]

molecular target: DLG1_1, Q12959; assay: holdup assay; set-up: key: below the threshold = too weak to quantify, mostly under pKd 3.1 to 4; conditions: plain residues with an end cap or a label only (N-terminal biotin on a linker: ado-ado)

pKd	Binder
below the threshold	NNMAFETTHF [SLC5A12, Q1EHB4]
below the threshold	SSSVNVSSNL [CXCR1, P25024]

molecular target: FRMPD2_1, Q68DX3; assay: holdup assay; set-up: key: below the threshold = too weak to quantify, mostly under pKd 3.1 to 4; conditions: plain residues with an end cap or a label only (N-terminal biotin on a linker: ado-ado)
Sequence (Q68DX3 770-861): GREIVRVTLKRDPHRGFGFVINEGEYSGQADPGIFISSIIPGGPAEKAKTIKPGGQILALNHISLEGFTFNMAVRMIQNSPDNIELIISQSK

pKd	Binder
below the threshold	NNMAFETTHF [SLC5A12, Q1EHB4]
below the threshold	SSSVNVSSNL [CXCR1, P25024]

molecular target: T4, APBA1_1, Q02410; assay: holdup assay; set-up: key: below the threshold = too weak to quantify, mostly under pKd 3.1 to 4; conditions: plain residues with an end cap or a label only (N-terminal biotin on a linker: ado-ado)

pKd	Binder
below the threshold	NNMAFETTHF [SLC5A12, Q1EHB4]
below the threshold	SSSVNVSSNL [CXCR1, P25024]

molecular target: LAP2, Q96RT1; assay: holdup assay; set-up: key: below the threshold = too weak to quantify, mostly under pKd 3.1 to 4; conditions: plain residues with an end cap or a label only (N-terminal biotin on a linker: ado-ado)
Sequence (Q96RT1 other isoform, or with tags, fused parts or gaps): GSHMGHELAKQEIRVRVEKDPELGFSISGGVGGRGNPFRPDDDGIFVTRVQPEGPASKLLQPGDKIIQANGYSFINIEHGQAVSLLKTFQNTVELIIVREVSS

pKd	Binder
below the threshold	NNMAFETTHF [SLC5A12, Q1EHB4]
below the threshold	SSSVNVSSNL [CXCR1, P25024]

molecular target: LNX1_2, Q8TBB1; assay: holdup assay; set-up: key: below the threshold = too weak to quantify, mostly under pKd 3.1 to 4; conditions: plain residues with an end cap or a label only (N-terminal biotin on a linker: ado-ado)
Sequence (Q8TBB1 371-470): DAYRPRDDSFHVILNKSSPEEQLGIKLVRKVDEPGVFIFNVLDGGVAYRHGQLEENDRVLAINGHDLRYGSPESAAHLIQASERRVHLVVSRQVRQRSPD

pKd	Binder
below the threshold	NNMAFETTHF [SLC5A12, Q1EHB4]
below the threshold	SSSVNVSSNL [CXCR1, P25024]

molecular target: T5, MPDZ_5, O75970; assay: holdup assay; set-up: key: below the threshold = too weak to quantify, mostly under pKd 3.1 to 4; conditions: plain residues with an end cap or a label only (N-terminal biotin on a linker: ado-ado)

pKd	Binder
below the threshold	NNMAFETTHF [SLC5A12, Q1EHB4]
below the threshold	SSSVNVSSNL [CXCR1, P25024]

molecular target: MAGI2_2, Q86UL8; assay: holdup assay; set-up: key: below the threshold = too weak to quantify, mostly under pKd 3.1 to 4; conditions: plain residues with an end cap or a label only (N-terminal biotin on a linker: ado-ado)
Sequence (Q86UL8 410-522): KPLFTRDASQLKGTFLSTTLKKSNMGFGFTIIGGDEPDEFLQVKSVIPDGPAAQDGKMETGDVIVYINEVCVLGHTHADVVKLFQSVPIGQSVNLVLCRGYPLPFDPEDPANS

pKd	Binder
below the threshold	NNMAFETTHF [SLC5A12, Q1EHB4]
below the threshold	SSSVNVSSNL [CXCR1, P25024]

molecular target: PARD3_3, Q8TEW0; assay: holdup assay; set-up: key: below the threshold = too weak to quantify, mostly under pKd 3.1 to 4; conditions: plain residues with an end cap or a label only (N-terminal biotin on a linker: ado-ado)
Sequence (Q8TEW0 582-685): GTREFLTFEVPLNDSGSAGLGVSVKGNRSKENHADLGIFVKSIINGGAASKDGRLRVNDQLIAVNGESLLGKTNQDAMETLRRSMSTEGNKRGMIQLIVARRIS

pKd	Binder
below the threshold	NNMAFETTHF [SLC5A12, Q1EHB4]
below the threshold	SSSVNVSSNL [CXCR1, P25024]

molecular target: T6, MPDZ_12, O75970; assay: holdup assay; set-up: key: below the threshold = too weak to quantify, mostly under pKd 3.1 to 4; conditions: plain residues with an end cap or a label only (N-terminal biotin on a linker: ado-ado)

pKd	Binder
below the threshold	NNMAFETTHF [SLC5A12, Q1EHB4]
below the threshold	SSSVNVSSNL [CXCR1, P25024]

molecular target: DLG4_3, P78352; assay: holdup assay; set-up: key: below the threshold = too weak to quantify, mostly under pKd 3.1 to 4; conditions: plain residues with an end cap or a label only (N-terminal biotin on a linker: ado-ado)
Sequence (P78352 306-403): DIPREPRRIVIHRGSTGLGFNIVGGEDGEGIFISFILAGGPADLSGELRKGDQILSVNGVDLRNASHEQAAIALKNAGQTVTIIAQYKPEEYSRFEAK

pKd	Binder
below the threshold	NNMAFETTHF [SLC5A12, Q1EHB4]
below the threshold	SSSVNVSSNL [CXCR1, P25024]

molecular target: T7, PTPN13_1, Q12923; assay: holdup assay; set-up: key: below the threshold = too weak to quantify, mostly under pKd 3.1 to 4; conditions: plain residues with an end cap or a label only (N-terminal biotin on a linker: ado-ado)

pKd	Binder
below the threshold	NNMAFETTHF [SLC5A12, Q1EHB4]
below the threshold	SSSVNVSSNL [CXCR1, P25024]

molecular target: T8, RAPGEF6, Q8TEU7; assay: holdup assay; set-up: key: below the threshold = too weak to quantify, mostly under pKd 3.1 to 4; conditions: plain residues with an end cap or a label only (N-terminal biotin on a linker: ado-ado)

pKd	Binder
below the threshold	NNMAFETTHF [SLC5A12, Q1EHB4]
below the threshold	SSSVNVSSNL [CXCR1, P25024]

molecular target: T9, LNX2_3, Q8N448; assay: holdup assay; set-up: key: below the threshold = too weak to quantify, mostly under pKd 3.1 to 4; conditions: plain residues with an end cap or a label only (N-terminal biotin on a linker: ado-ado)

pKd	Binder
below the threshold	NNMAFETTHF [SLC5A12, Q1EHB4]
below the threshold	SSSVNVSSNL [CXCR1, P25024]

molecular target: SNX27, Q96L92; assay: holdup assay; set-up: key: below the threshold = too weak to quantify, mostly under pKd 3.1 to 4; conditions: plain residues with an end cap or a label only (N-terminal biotin on a linker: ado-ado)

pKd	Binder
5.62	NNMAFETTHF [SLC5A12, Q1EHB4]
3.68	SSSVNVSSNL [CXCR1, P25024]

molecular target: DLG4_1, P78352; assay: holdup assay; set-up: key: below the threshold = too weak to quantify, mostly under pKd 3.1 to 4; conditions: plain residues with an end cap or a label only (N-terminal biotin on a linker: ado-ado)
Sequence (P78352 62-152): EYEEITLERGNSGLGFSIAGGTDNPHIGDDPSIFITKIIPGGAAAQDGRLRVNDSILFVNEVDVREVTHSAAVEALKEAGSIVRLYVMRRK

pKd	Binder
below the threshold	NNMAFETTHF [SLC5A12, Q1EHB4]
below the threshold	SSSVNVSSNL [CXCR1, P25024]

molecular target: GRIP2_3, Q9C0E4; assay: holdup assay; set-up: key: below the threshold = too weak to quantify, mostly under pKd 3.1 to 4; conditions: plain residues with an end cap or a label only (N-terminal biotin on a linker: ado-ado)
Sequence (Q9C0E4 238-339): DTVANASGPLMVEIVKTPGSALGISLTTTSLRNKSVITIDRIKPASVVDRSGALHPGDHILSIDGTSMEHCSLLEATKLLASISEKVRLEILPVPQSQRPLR

pKd	Binder
below the threshold	NNMAFETTHF [SLC5A12, Q1EHB4]
below the threshold	SSSVNVSSNL [CXCR1, P25024]

molecular target: DLG2_3, Q15700; assay: holdup assay; set-up: key: below the threshold = too weak to quantify, mostly under pKd 3.1 to 4; conditions: plain residues with an end cap or a label only (N-terminal biotin on a linker: ado-ado)

pKd	Binder
3.7	NNMAFETTHF [SLC5A12, Q1EHB4]
below the threshold	SSSVNVSSNL [CXCR1, P25024]

molecular target: Inadl_1, Q8NI35; assay: holdup assay; set-up: key: below the threshold = too weak to quantify, mostly under pKd 3.1 to 4; conditions: plain residues with an end cap or a label only (N-terminal biotin on a linker: ado-ado)
Sequence (Q8NI35 113-229): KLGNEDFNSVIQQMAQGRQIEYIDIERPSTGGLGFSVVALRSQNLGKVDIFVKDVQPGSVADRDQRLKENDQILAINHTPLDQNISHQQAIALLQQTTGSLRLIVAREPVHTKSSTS

pKd	Binder
below the threshold	NNMAFETTHF [SLC5A12, Q1EHB4]
below the threshold	SSSVNVSSNL [CXCR1, P25024]

molecular target: FRMPD3, Q5JV73; assay: holdup assay; set-up: key: below the threshold = too weak to quantify, mostly under pKd 3.1 to 4; conditions: plain residues with an end cap or a label only (N-terminal biotin on a linker: ado-ado)
Sequence (Q5JV73 12-100): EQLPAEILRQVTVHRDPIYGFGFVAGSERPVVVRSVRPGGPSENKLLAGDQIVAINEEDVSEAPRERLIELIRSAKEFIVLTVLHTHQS

pKd	Binder
3.5	NNMAFETTHF [SLC5A12, Q1EHB4]
below the threshold	SSSVNVSSNL [CXCR1, P25024]

molecular target: T10, PDZD2_2, O15018; assay: holdup assay; set-up: key: below the threshold = too weak to quantify, mostly under pKd 3.1 to 4; conditions: plain residues with an end cap or a label only (N-terminal biotin on a linker: ado-ado)

pKd	Binder
below the threshold	NNMAFETTHF [SLC5A12, Q1EHB4]
3.69	SSSVNVSSNL [CXCR1, P25024]

molecular target: GRIP2_7, Q9C0E4; assay: holdup assay; set-up: key: below the threshold = too weak to quantify, mostly under pKd 3.1 to 4; conditions: plain residues with an end cap or a label only (N-terminal biotin on a linker: ado-ado)
Sequence (Q9C0E4 934-1023): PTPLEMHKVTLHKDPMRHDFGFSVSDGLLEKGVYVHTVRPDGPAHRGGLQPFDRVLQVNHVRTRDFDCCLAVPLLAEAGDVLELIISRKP

pKd	Binder
below the threshold	NNMAFETTHF [SLC5A12, Q1EHB4]
below the threshold	SSSVNVSSNL [CXCR1, P25024]

molecular target: HTRA2, O43464; assay: holdup assay; set-up: key: below the threshold = too weak to quantify, mostly under pKd 3.1 to 4; conditions: plain residues with an end cap or a label only (N-terminal biotin on a linker: ado-ado)
Sequence (O43464 355-458): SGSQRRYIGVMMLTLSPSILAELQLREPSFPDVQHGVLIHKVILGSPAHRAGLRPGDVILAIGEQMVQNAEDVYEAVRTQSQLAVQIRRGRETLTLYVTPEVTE

pKd	Binder
below the threshold	NNMAFETTHF [SLC5A12, Q1EHB4]
below the threshold	SSSVNVSSNL [CXCR1, P25024]

molecular target: NHERF4_1, Q86UT5-2; assay: holdup assay; set-up: key: below the threshold = too weak to quantify, mostly under pKd 3.1 to 4; conditions: plain residues with an end cap or a label only (N-terminal biotin on a linker: ado-ado)
Sequence (Q86UT5 other isoform, or with tags, fused parts or gaps): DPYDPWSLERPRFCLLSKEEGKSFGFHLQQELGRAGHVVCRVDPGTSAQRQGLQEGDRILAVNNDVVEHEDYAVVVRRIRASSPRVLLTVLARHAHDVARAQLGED

pKd	Binder
4.35	NNMAFETTHF [SLC5A12, Q1EHB4]
3.74	SSSVNVSSNL [CXCR1, P25024]

molecular target: MAST2, Q6P0Q8; assay: holdup assay; set-up: key: below the threshold = too weak to quantify, mostly under pKd 3.1 to 4; conditions: plain residues with an end cap or a label only (N-terminal biotin on a linker: ado-ado)
Sequence (Q6P0Q8 1099-1202): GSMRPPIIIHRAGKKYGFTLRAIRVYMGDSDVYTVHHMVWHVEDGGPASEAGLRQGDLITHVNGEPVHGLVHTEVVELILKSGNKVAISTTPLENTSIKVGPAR

pKd	Binder
5.56	NNMAFETTHF [SLC5A12, Q1EHB4]
5.13	SSSVNVSSNL [CXCR1, P25024]

molecular target: NOS1, P29475; assay: holdup assay; set-up: key: below the threshold = too weak to quantify, mostly under pKd 3.1 to 4; conditions: plain residues with an end cap or a label only (N-terminal biotin on a linker: ado-ado)
Sequence (P29475 9-101): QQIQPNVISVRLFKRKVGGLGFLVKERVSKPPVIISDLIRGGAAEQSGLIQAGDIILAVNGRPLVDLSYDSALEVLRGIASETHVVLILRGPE

pKd	Binder
below the threshold	NNMAFETTHF [SLC5A12, Q1EHB4]
below the threshold	SSSVNVSSNL [CXCR1, P25024]
